Values of other authors, collected in publication PMC7587574.
Read-outs that look alike come from different tables or passages of the source. Values belong to the substance of their own block, whether it stands above or below them.

Columns and labels:
[1] = biological target: PACAP receptor (PAC1R) (Homo sapiens) (UniProt P41586)
[2] = biological target: PACAP receptor (PAC1R) (Homo sapiens) (UniProt P41586); remark: listed apart in the source
[3] = biological target: κ-opioid receptor (Homo sapiens) (UniProt P41145)
Chain of κ-opioid receptor (Homo sapiens) (P41145 whole entry): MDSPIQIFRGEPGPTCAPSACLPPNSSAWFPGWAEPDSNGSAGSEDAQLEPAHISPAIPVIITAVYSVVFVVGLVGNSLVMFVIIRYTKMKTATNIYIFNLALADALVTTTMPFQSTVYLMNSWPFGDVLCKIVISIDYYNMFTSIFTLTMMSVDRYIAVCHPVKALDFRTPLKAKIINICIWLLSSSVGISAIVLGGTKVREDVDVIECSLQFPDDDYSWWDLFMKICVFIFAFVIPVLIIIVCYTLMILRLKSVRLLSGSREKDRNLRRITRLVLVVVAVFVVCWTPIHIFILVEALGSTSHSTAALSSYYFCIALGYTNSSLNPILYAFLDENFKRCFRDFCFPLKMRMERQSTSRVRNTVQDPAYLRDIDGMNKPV

Chain of PACAP receptor (PAC1R) (Homo sapiens) (P41586 21-468): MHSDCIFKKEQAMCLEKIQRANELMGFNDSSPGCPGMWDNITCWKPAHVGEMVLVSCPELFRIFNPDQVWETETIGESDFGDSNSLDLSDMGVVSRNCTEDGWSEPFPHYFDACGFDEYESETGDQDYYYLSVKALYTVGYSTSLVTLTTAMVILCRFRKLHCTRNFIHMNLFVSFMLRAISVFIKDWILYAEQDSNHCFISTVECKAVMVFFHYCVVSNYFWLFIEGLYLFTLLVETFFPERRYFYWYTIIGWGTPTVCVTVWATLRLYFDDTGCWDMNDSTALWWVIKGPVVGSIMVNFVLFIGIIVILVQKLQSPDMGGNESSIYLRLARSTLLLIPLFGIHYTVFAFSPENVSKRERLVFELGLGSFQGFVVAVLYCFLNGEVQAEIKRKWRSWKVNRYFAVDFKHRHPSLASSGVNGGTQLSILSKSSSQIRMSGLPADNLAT
Chain of PACAP (truncated) (P18509 137-169): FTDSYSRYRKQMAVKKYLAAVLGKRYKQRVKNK
Chain of PACAP (P18509 82-129): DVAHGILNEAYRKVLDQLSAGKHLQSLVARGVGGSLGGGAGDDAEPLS

- Kd [1]: 3 nM
Substance: PACAP (from UniProt P18509)

- Kd [2]: 18000 nM
Substance: PACAP (truncated) (from UniProt P18509)

Substance: dynorphin 13-mer fragment (from UniProt P01213)
- Kd [3]: 200 nM
